In US20260008830A1:

Biological target: T1, IL-22 receptors R1 and R2 on HEK-Blue IL-22 reporter cells (UniProt Q8N6P7)
T1 sequence (looked up) 1: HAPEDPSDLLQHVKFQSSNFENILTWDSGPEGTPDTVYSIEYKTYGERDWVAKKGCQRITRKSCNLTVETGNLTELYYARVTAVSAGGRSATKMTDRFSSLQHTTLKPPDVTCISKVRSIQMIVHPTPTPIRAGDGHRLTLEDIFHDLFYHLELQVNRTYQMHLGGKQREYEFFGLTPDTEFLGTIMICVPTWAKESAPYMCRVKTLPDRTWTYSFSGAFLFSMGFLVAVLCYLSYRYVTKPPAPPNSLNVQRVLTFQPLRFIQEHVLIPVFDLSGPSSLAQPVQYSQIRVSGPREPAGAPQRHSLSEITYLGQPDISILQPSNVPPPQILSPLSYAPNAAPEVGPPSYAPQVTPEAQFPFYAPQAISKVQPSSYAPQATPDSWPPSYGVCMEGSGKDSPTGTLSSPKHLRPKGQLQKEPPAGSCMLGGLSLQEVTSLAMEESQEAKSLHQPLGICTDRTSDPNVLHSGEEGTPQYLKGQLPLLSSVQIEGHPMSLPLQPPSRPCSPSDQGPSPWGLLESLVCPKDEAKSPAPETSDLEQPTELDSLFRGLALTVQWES
T1 sequence (looked up) 2: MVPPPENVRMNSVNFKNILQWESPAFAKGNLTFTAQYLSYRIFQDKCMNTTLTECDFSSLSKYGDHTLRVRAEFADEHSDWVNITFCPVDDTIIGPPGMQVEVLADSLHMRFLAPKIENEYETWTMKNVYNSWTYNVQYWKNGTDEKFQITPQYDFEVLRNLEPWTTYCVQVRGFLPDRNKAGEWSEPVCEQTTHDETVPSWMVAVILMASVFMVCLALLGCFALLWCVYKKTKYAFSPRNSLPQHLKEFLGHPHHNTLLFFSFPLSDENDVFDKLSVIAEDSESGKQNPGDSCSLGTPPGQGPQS
Experiment: cell-based or functional assay

B1: IL22 WT (monomeric IL22 based on the IL22 crystal, PDB 3dlq, expressed in bacteria) (ligand)
chain: ARLDKSNFQQPYITNRTFMLAKEASLADNNTDVRLIGEKLFHGVSMSERCYLMKQVLNFTLEEVLFPQSDRFQPYMQEVVPFLARLSNRLSTCHIEGDDLHIQRNVQKLKDTVKKLGESGEIKAIGELDLLFMSLRNACI
- Kd (apparent, HEK-Blue IL-22 reporter): 0.017 nM
